PMC4300948 (Nanoscale, 2014)
Where no end group is shown, it is not given here.

How the values were obtained:
[1] = biological target: FVIII free human von Willebrand factor (VWF) (human, UniProt P04275 764-2813)
[2] = biological target: physiologic human von Willebrand factor (VWF) (human, UniProt P04275 764-2813)

binding result [1]: binds | binding result [2]: binds
Binder: TRYLRIHPQSWVHQI (also: lipid-peptide bioconjugate, displayed on liposome surface) [VWF-binding peptide (VBP), FVIII-derived, decorated on liposomal nanoconstructs]
